Reference: the nanobody polyreactivity screen of Harvey et al. (2022)

Experiment: yeast display, Sf9 membrane polyspecificity reagent, FACS + sequencing; frameworks hold sequencing errors
In short: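 A synthetic nanobody library was expressed on Saccharomyces cerevisiae BJ5465 by galactose induction for 36–48 hours. The library was stained for 1 hour at 4 °C with 10% biotinylated, detergent-solubilized Sf9 membrane reagent and enriched with streptavidin microbeads before FACS. Low and high (top ~1%) gates were set on anti-HA fluorescence for expression and streptavidin fluorescence for reagent binding, and each polyreactivity label reflects the gate of origin.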

| Sequence | polyreactivity (PSR sort gate) |
| --- | --- |
| QVQLVESGGGLVQAGGSLRLSCAASGSTCYKYAMGWYRKAPGKERELVAVITKSGGSTYYADSVKGRFTISRDNAKNPVYLQMNSLTPEDTAVYYCGTVQSGRVRTYDYCGQGTQVTVSS | high polyreactivity |
| QVQLVESGGGLVQAGGSLRLSCAASGSIFRVYAMGWYRQAPGKERELVAAISRGGGTTYYADSVKGRFTISRDNAKNTVYLQMNRLKPEDTAVYYCASEYLGYYYQFDSWGQGTQVTVSS | high polyreactivity |
| QVQLVESRGGLVQARGSLRLSCAASGSTLFRYTKGWYRQAPGKERELVAAITRSGGNTFYADSVKGRFTISRDNSKNTVYLQMNSLKPEDTAVYYCAARARYVNCQGFDYWGQVTQVTVSS | high polyreactivity |
| QVQLVESGGGLVQAGGSLRCSCAASGRTFGTYAMGWYRQAPGKERELVAAISTRDGSTYYADSVKGRYTISRDTAKNTVYLQMNSLKPEDTAVYYCNAVVRYYDWGYWDYDYWGQGTQVTVSS | low polyreactivity |
| QVQLVESGGGLVQAGGSLRLSCAASGSIFYGYDMGWYRQAPGKERELVATISWSSGSSTYYADSVKGRFTISRDNAKNTVYLQMNSLKPEYTAVYYCAVDFAIGYRYLGRVDYWGQGTQVTVSS | low polyreactivity |
| QVQLVESGGGLVQAGGSLRLSCAASGGTFTKNAMGWYRQAPGKERELVAAINYSGGSTYYADSVKGRFTISRDNAKNTVYLQMNSLKPEDTAVYYCAADDYRDGFTQYDYWGQGTQVTVSS | low polyreactivity |
| QVQLVESGGGLVQAGGSLRLSCAASGFTLIHYAMGWYRQAPGKERELVAGITTSGGSTYYADSVKGRFTISRDNAKNTGYLQMNSLKPEDTAVYYCNAEYRRRPKLGDEDEYWGQGTQVTVSS | high polyreactivity |
| QVQLVESGGGLVQAGGSLRLSCAASGFISYTYMGWYRQAPGKERELVAGITGSGGSTYYADSVKGRFTISRDNAKNTVYLQMNILKPEDTAVYYCAAPRYLSYVRRYDYWGQGTQVTVSS | high polyreactivity |
| QVQLVESGGGLVHAGGSLRLSCAASGRTFWAYAMGWYRQAPGKERELVAAISASRGSTYYADSVKGRFTISRDTAKNTVYLEMNSLTAEDTAVYYCRLVSNGRLYDYWGQGTQATVSS | low polyreactivity |
| QVQLVESGGGLVQAGGSLRLSCAASGSIFPSNVMGWYRQAPGKERELVAAISTTGSTYYADSVKGRFTISRDNAKNTVYLQMNSLKTEDTAVYDCAAEYWSYAHGGQLYGYDYWGQGTQVTVSS | low polyreactivity |
| QVQLVESGGGLVQAGGSLRLSCAASGFTFQYYAMGWYRQAPGKERELVAAISWSGTSPYYADSVKGRFTISRDNAKNTVYLQMISLKPADTAVYDCAASVWYYYSDYDYWGQGTQVTVSS | high polyreactivity |
| QVQLVESGGGLVQAGGSLRLSCAASVSIFAYYAMGLYRQAPGKERELVAAISRGGDTNYADSVKGRFTISRDNAKNTVYLQMNSLKPEDTAVSYCAATSYVRGYWYGYWGQGSQVTVSS | high polyreactivity |
| QVQLVESGGGLVQAGGSLRLSCAASGSTFVPYVMGWYRQAPGKERELVAAISKSGTSTYYADSVKGRFTISRDNAKNTVYLQMNCLKPEDTAVYYCAAVARRQVPYDYWGQGTQVTVSS | high polyreactivity |
| QVQRVESGGGLVQAGGILRLSCAASGSTFREYTMGWYRQAPGKEKELVAAITNSGGSTYYADSVKGRFTISRDNEKNTVYLQMNSLKPEDTAVYYCAADVGIVDYDYWGQGTQVTVSS | low polyreactivity |
| QVQLVESGGGLVQAGGSLRLSCAASGRTFGRYTMGWYRQAPGKERELVAAINWSGGRTYYADSVKGRFTISRDNAKNTVYLQMNSLKPEDTAVYYCNAVFANTSPEYEYWGQGTQVTVSS | high polyreactivity |
| QVQLVESGGGLVQAGGSLRLSCAASGSTFRTYTMGWYRQAPGKERELVAAISSIGSSTFYADSVKGRFTISRDNAKNTVYLQMISLKPEDTAVYYCAAVRRGGGVIYDYWGQGTQVTVSS | high polyreactivity |
| HVPLVESGGGLVQAGGSLRLSCAASGFTFRANGMGWYRQAPGKERELVATIPSGGTTNYADSVKGRFTISRDNAKKTVYLQMNSLKPEDNAVYDCAASLGANGFQGRMYYWGQGTQVTVSS | low polyreactivity |
| QVQLVESGGGLVLAGGSLRLSCAASGFIFATYAMGWYRQAPGKERVLVAAISRRGVRTNYADSVKGRFTISRDNAKNTVYLQMNSLKPEDTAVYYSNAQSHYGKIPMYYWGQGTQVTVSS | high polyreactivity |
| QVQLVESGGGLVQAGGSLRLSCAASGRTFEGNAMGWYRQAPGKERELVAAISGSGGRTYYADSVKGRFTISRDNAKNTVYLQMNSLKPEDTAVYYAKLYSVYNPWRFNYWGQGTQVTVSS | high polyreactivity |
| QVQLVESGGGLVQAGGSLRLSCAGSGSIFGEYVMGCYRQATVKERELVADISWRDGDTYYADSVKGRFTISRDNAKNTVYLQMNSLKPEDTAVYYFAADVIVPESYGYWPLSYYYLGQGTQVTVSS | low polyreactivity |
| QVQLVESGGGLVQAGGSLRLSCAASGRTFGVYVKGWYRQAPGKERELVAAIDDSGGSTYYADSVKGRFTISRDNAKNTVYLQMNSLKPEDTAVYYCAKTKTQYLTSEIRFDYWGQGTQVTVSS | low polyreactivity |

| Sequence | polyreactivity (PSR sort gate) |
| --- | --- |
| QVQLVESGGGLVQAGGSLRLSCAASGRTFAYNAMGWYRQAPGKERELVAANTDSDGNTNYADSVKRRFTISRDNAKNTVYVLLNSLIPEDTAVDYCAADYIILVHVTRGFGYEYWGQGTQVTVSS | low polyreactivity |
| QVQLVESGGGLVQAGGSLRLSCAASGRTFDYNAMGWYRQAPGKERELFAAISQSGGRTYYADSVKGRFTISRDNAKNTVYLQMYSLKPVDTAVYYCAAEAYGNRDYWGQGTQVTVSS | low polyreactivity |
| QVQLVESGGGLVQAGGSLRLSCAASGITFRRYTMGWYRQAPGKERELVAAISRTGGSTYYADSVKGRFTISRDNAKNTVYLQMNSLKPEDTAVYYCAARPHRYTSRHGYWGQGTQVTVSS | high polyreactivity |
| QVQLVESGGGLVQAGGSLRLSCAASGSTFVWYAMGWYRQAPGKEREFVATISWSGDSTYYADSVKGRFTISRDNAKNTVYLQMNSLKPEDTAVYYCATAVYLVIFEYDYWGQGSQVTVSS | low polyreactivity |
| QVQLVESGGGLVQAGGSLRLSCAASGSIFGFNAMGWYRQAPGKERELVAAISSGSTYYADSVKGRFTISRDNAKNTVYLQKNSLKPEDTAVYYCAATTGYSWYGYWGQGPQVTVSS | low polyreactivity |
| QVQLVESGGGIVQAGGSLRLSCAASGRTFYRNAMGWYIHAPGKERELVAAITSGGSTYYADSVKGRFTISRDNAKNSGYLQMNCLKPEDTAVYYCAALRHALRYDYWGQGTQVTVSS | low polyreactivity |
| QVQIVESGGGLVQAGGSLRLSCAASGIIFRYYAMGWYRQAPGKERELVAAISSSGVSTYYADSVKGRFTISRDYAKNTVYLQMNSLKPEDTAVYYCAAVTTWRIDYWGQGTQVNVSS | high polyreactivity |
| QVQLVESGGGLVQAGGSLRLSCAASGFTFDRYAMGWYRQAPGKERELVAAISVSGGRTYYADSVKGRFTISRDNAKNTVYLQMNSLKPEDTAVYYCAARDHSRSRFGYDYLGQGTQVTVSS | high polyreactivity |
| QVQLVESGGGLVQAGGSLRLSFAASGFIFDKYAMGWYRQAPGKERELVATITSGGSTYYADSVKGRFTISRDNAKNYVYLQMYSLKREDTADYYCAALDYGYRWYRYYYWGQGSQVTVSS | high polyreactivity |
| QVQHVESGGGLVQAGGSLRLSCAASGSIFYVYAMGWYRQAPGKERELVASINKSGGSTYYADSVKGRFTISRDNAKNTVYLQMNSLKPEDTAVYYCAARTGWPRVGFQYPAHVGFDYWGQGTQVTVSS | low polyreactivity |
| QVQLVESGGGLVQAGGSLRISCAASGSIFASNTMGWYRQARGTERELVAGITKIGSSTYYADSVTGRFTISRDNAKNTVYLKMNSLKPEDTAVYYCNAYGPNIYSSRYDYWGQGTQVTVSS | low polyreactivity |
| QVQLVESGGGLGQAGGSLRLSCAASGFTFRTNAMGWYRQAPGKEREFVAAISWSGGRTYYADSVKGRFTISRDNAKNTVYLQMNSLKPEDTAVYYCNADPFHWYYTNMYYWGQGTQVTVSS | high polyreactivity |
| QVQLVESGGGLVQAGGSLRLSCAASGRIFPTNAMGWYRQAPGKERELVASIDSGGSTKYADSVKGRFTISRDNAKNTVDLQMNSLKPEDTTVYYRALQVLNYDYWGQGTQVTVSS | low polyreactivity |
| QVQLVESGGGLVQAGGSLRLSCAASGSISKSYAMGWYRQAPGKERELVAVITSGGNTYYADSVKGRFTISRDNAKNTVYLQMNSLKPEDTAVYYCAADYHWYTEDDYWGQGTQVTVSS | high polyreactivity |
| QVQLVESGGGLVQAGGSLRLSCAASGNAMGWYRQAPGKERELVAAITYGGTTTYYADSVKGRFTISRDNAKNTVYLQMNSLKPEDTAVYYCAADYVFVATPLRYDYWGQGTQVTVSS | low polyreactivity |
| QVQLVESGGGLVQAGGSLRLSCAASGRTFKPYAMGWYRQAPGKERELVAAISSRGTSTNYADSVKGRFTISRDNAKNTVYLQMNSLKPEDTAVYYCNRVLLPGPQYQWGKAYDYWGQGTQVTVSS | high polyreactivity |
| QVQIVESGGGLVQAGGSLRLSCAASGITFHDYAMGWDRQEPGQERELVATIRSSTYYADSVKGRFTISRDTAKNTVYLQMNSLKTEDTAVYYCNVRLSYSYISPSDWNFDYWGQGTQVTVSS | low polyreactivity |
| QVQLVESGGGLVQAGGSLRLTCAASGRIFSRNTMGWYRQAPGKERELVATISWSGSRTYYADSVKGRFTISRDNAKNTVYLQMNSLKPEDTAVYYCAAVVPLSRSYDYYYWGQGTQVTVSS | high polyreactivity |
| QVQLVESGGGLVQAGGSLRLSCAASGSIFGSYVMVWYRQAPGKERELVAAISKSGGRTYYADSVKGRFTISRDNAKNTVYLQMKSLKPEDTAVYYCAVLPRVKDGTGGDYWGQGTQVTVSS | high polyreactivity |
| QVQLVESGGGLVQAGGSLRLSCAASGSTFYFNAMGWSRQAPGKERELVAGISSGGSTYYADSVKGRFTISRDNAKNTVYLQMNSLKPEDTAVYYCAATWLVERPVSYTEYGYWGQGTQVTVSS | low polyreactivity |
